# Test results published in the supplement of paper PMC9170038.
# System: MS2 coat protein
# Experiment: apparent KD of MS2 coat protein; designed switch direction (-1 OFF switch, 1 ON switch): 1; higher = weaker reporter binding
# In short: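 The apparent KD reported per design is the median over clusters of curve fits to normalised cluster fluorescence. The RNA switches were transcribed on Illumina chips by stalled E. coli RNA polymerase. SNAP-549-labelled MS2 coat protein was titrated from 0.7 or 1.5 nM, doubling up to 3 µM, in Tris-HCl pH 7.5 buffer containing KCl, MgCl2, BSA, DTT, tRNA and Tween-20, with no input, 200 uM small-molecule ligand, or an oligonucleotide input.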
# [1] = input ligand: microRNA oligo, concentration not stated
# [2] = Eterna round: R95, input ligand: FMN 200 uM
# [3] = Eterna round: R95, input ligand: microRNA oligo, concentration not stated
# [4] = Eterna round: R95, input ligand: none
Sequence,apparent KD of MS2 coat protein [1] [µM],apparent KD of MS2 coat protein (input ligand: FMN 200 uM) [µM],apparent KD of MS2 coat protein (input ligand: none) [µM],apparent KD of MS2 coat protein [2] [µM],apparent KD of MS2 coat protein [3] [µM],apparent KD of MS2 coat protein [4] [µM]
"AUACAUGAGGAUCACCCAUGUAAUUAAUUAAUUAAUAAGAUCAAGGAUAUCAGCUCGAUUAGAGCUGAGAAGGUGAUCACAUGU [SSNG3/21-D2] (Eterna round: R96, puzzle: Same State NG 3)",0.272,–,–,–,–,–
"UAUGAAUUACAAGGAUAUUAAUAACAUGAGGAUCACCCAUGUGGCUGUGAGAGUUAGAUAAGCUAUAAGAAGGUGUGUGUGUUU [JR_SSNG2_Sub093] (Eterna round: R96, puzzle: Same State NG 2)",0.196,0.0931,0.267,–,–,–
GGUAAACAUGAGGAUCACCCAUGUAAUAUAAUGGGAGGAUAUCUGAAUUAAUUAAAUUAAGGAGAAGGCCUAAUGG [Mat - Same State 1 - Mod of Eli - D49] (puzzle: Same State 1),–,–,–,0.248,0.245,0.321
"GCUACCAAAGAAGCCUACAUGAGGAUCACCCAUGUAUGUAGGCAGGAUAUCGAUUGCAAAGCGAUCGAGAAGGGCUUAGGUAGC [Mat - Same State NG 3 - JL Mod - D92] (Eterna round: R96, puzzle: Same State NG 3)",0.116,0.0689,0.152,–,–,–
"UUAUCUCUUACAUGAGGAUCACCCAUGUUUUUAUGUCUUAGACAGGAUAUAGUAGUCUCGUUUUACUAGAAGGGUCUUUUUAUU [JR_SSNG3_Sub019] (Eterna round: R96, puzzle: Same State NG 3)",0.0398,0.0289,0.0514,–,–,–
UCUUGGUUUUUGCUCGUUUUUUGUGUUGAACAUGAGGAUCACCCAUGUAUUGUACGGUCCGAUUUAGUGGUAGUCCG [JMF 72] (puzzle: Sensor for hsa-mir-208a),–,–,–,0.0347,0.0235,0.036
"GGUAGGUUACUACCAAUACAUGAGGAUCACCCAUGUUGUCAUGAGGAUAUGGUACCUAUUUGGUACCAGAAGGCAUGUAUAAUU [Fiskers NG3ss - 20] (Eterna round: R96, puzzle: Same State NG 3)",0.0595,0.0496,0.062,–,–,–
"GCAAAGGCGGUAGGAUAUCUAGGAUAUGGGAAAGACUAAGUCUGUAGGUCACCUAACCCAGAAGGAGAGAAGGACACCGAAAGG [pwkr ssNG2 2FMN + F9.25] (Eterna round: R96, puzzle: Same State NG 2)",0.00918,0.617,0.0737,–,–,–
"GCUAGAAAUAAUGCCAACAUGAGGAUCACCCAUGUAUGUUGGCAGGAUAUCGUUUGCUUUGCAAACGAGAAGGGCUAAACUAGC [Mat - Same State NG 3 - JL Mod - D7] (Eterna round: R96, puzzle: Same State NG 3)",0.296,0.28,0.28,–,–,–
UCUUGGUUUUUGCUCGUUUUUUGUGUUGAACAUGAGGAUCACCCAUGUAUUGUACGGUCCAAUUUAAUAAUAGUCCA [JMF 75] (puzzle: Sensor for hsa-mir-208a),–,–,–,0.0623,0.0528,0.0755
"UGUACCUUCACAGGAUAUCAUGCGAAAAUUGCGUGAGAAGGGUGAAUACUGUCUUUCUAAGAGCACAUGAGGAUCACCCAUGUA [SameState NG1 #59] (Eterna round: R96, puzzle: Same State NG 1)",0.206,0.195,0.278,–,–,–
"GCUCGACGUGUUGUCUACAUGAGGAUCACCCAUGUAGGUGCGGAGGAUAUCUACGUGUUUUAUGUAGAGAAGGUCGUGUCGAGC [SameState NG3 #88] (Eterna round: R96, puzzle: Same State NG 3)",0.0155,0.0151,0.0172,–,–,–
"CCAACAUACAAUUUAAGAUCACAUGAGGAUCACCCAUGUAUGCAGGAUAUCAGCUCGUUUAGAGCUGAGAAGGGCAAUUUAAUU [SSNG3/1-A3] (Eterna round: R96, puzzle: Same State NG 3)",0.158,0.099,0.202,–,–,–
"UGGUACAUGGGAGGAUAUCUCGUGGAGACAUGAGGAUCACCCAUGUAGAUGGCCGGUAACCGGAGAGAGAAGGCCCAUGUACCU [JL SSNG1 3.68] (Eterna round: R96, puzzle: Same State NG 2)",0.0654,0.0669,0.159,–,–,–
"GGUGCAAUUAACGCCUACAUGAGGAUCACCCAUGUAUGUAGGCAGGAUAUCGUUUGCUUUGCAAACGAGAAGGGCUAUAGUACC [JL SSNG3 1.15] (Eterna round: R96, puzzle: Same State NG 3)",0.13,0.0544,0.157,–,–,–
"UGCCUGAGUCGAGGAUAUUAUGGAUCCUUUAAUACAUGAGGAUCACCCAUGUAAUUAAUUAUACAUGAGAAGGUGACUCAGGCA [SSNG2/11-B2] (Eterna round: R96, puzzle: Same State NG 2)",0.126,0.039,0.289,–,–,–
"GGUAAGAAUUAAGGAUAUCGAGUACAUAUGUUUAACAUGAGGAUCACCCAUGUGGGUUGCGGUAUCGAGAAGGUAAAUUAUAAG [Mat - same State NG 2 - JL mod - D63] (Eterna round: R96, puzzle: Same State NG 2)",0.0297,0.0433,0.0508,–,–,–
UCUUGGUUUUUGCUCGUUUUUUGUGUUGAACAUGAGGAUCACCCAUGUAUUGUACGGUCCGAUUUAGUGAUGGUCCA [JMF 40] (puzzle: Sensor for hsa-mir-208a),–,–,–,0.0369,0.0184,0.0425
"AUGAAGAAUUAAGGAUAUUGAAUACAUAUGUUUAACAUGAGGAUCACCCAUGUGGGUUGCGGUAUCGAGAAGGUAAAUUAAUAG [Mat - same State NG 2 - JL mod - D90] (Eterna round: R96, puzzle: Same State NG 2)",0.156,0.142,0.143,–,–,–
"GAGUAGUUGAUAGGAUAUUGAUUGUUGUAGGAUCAAGAAGGAUCUAACAUGAGGAUCACCCAUGUAGGACUAUUCCUGUGUAUC [Parity 85 - Jieux - Same State NG 1] (Eterna round: R96, puzzle: Same State NG 1)",0.0137,0.0186,0.0214,–,–,–
CUCUUACAUGAGGAUCACCCAUGUGUUGUCGUGGGAGGAUAUCCUGGUUCGGUGGCGUUGGGAGAAGGCCUAUGUC [× ×•×ª×• ×ž×“×™× ×” × ×—×ª-18] (puzzle: Same State 1),–,–,–,–,0.378,–
GUUAUACAUGAGGAUCACCCAUGUCAAUGUAGUCGAGGAUAUGGGCAGCUAUGAGGCGUACUAGAAGGCGAAGAGU [JL-ss1-3.12 ViennaUCT mod] (puzzle: Same State 1),–,–,–,0.164,0.374,0.309
"AUGAAUUUGCGAGGAUAUCGUUUGUUGAAGUUACGAGAAGGCGCUCACUUUACAUGAGGAUCACCCAUGUUUAUGUUUUAUGAU [JR_SSNG1_Sub075] (Eterna round: R96, puzzle: Same State NG 1)",0.0216,0.022,0.0311,–,–,–
"CCUAUAGCCACAGGAUAUGAGAACACGUUGAACGUACAUGAGGAUCACCCAUGUCGCCGAUCGACUUAGAAGGGUGGCCCUCGC [Eternabot solution 26] (Eterna round: R96, puzzle: Same State NG 2)",0.0379,0.0344,0.0294,–,–,–
AUAAGUCCGAUGCUCGUCUCUCCGUACAAACAUGAGGAUCACCCAUGUGAUCGGGCAGUAGCCCGAUCAGUAUGGCC [Raedre] (puzzle: Sensor for hsa-mir-208a),–,–,–,0.0515,0.0239,0.0564
"GCGGUAACUCACAUGAGGAUCACCCAUGUUCCGGAAACGGCACAGGAUAUCUGUCCGAAAAGGUCAGAGAAGGGUGAAAUCCGC [Fiskers NG3ss - 91] (Eterna round: R96, puzzle: Same State NG 3)",0.29,0.641,0.115,–,–,–
"GGAGCCAAGGCAGGAUAUUCAUACUAAUAACAUGAGGAUCACCCAUGUAAGGCCAGAAGGCCUUGGGAGAAGGGCCAUGGCUCG [Xeonanis - 13 mod3] (Eterna round: R96, puzzle: Same State NG 2)",0.0571,0.022,0.0867,–,–,–
CAGCGCUGUCGAGAGGAUAUGUGGUGAUGGACAUGAGGAUCACCCAUGUUAGCGACAGUAUCACGGCAGAAGGCUCUACCGCUGC [Soteed Omei mod 31] (puzzle: Same State 2),–,–,–,0.0561,0.0381,0.044
"GCUAGAAUUAAAGCCAACAUGAGGAUCACCCAUGUAUGUUGGCAGGAUAUCGUUUGCAAAGCAAACGAGAAGGGCUAAACUAGC [Mat - Same State NG 3 - JL Mod - D4] (Eterna round: R96, puzzle: Same State NG 3)",0.1,0.197,0.244,–,–,–
"ACGUGAGGCGCAGGAUAUACAUGAGGAUCACCCGUAGAAGGGCGCACCCAUAACAUGAGGAUCACCCAUGUUGUCCAUGUCCAU [Same State NG 1 S5] (Eterna round: R96, puzzle: Same State NG 1)",0.158,0.226,0.241,–,–,–
